# Source: the RNAGym collection of RNA variant scans (doi:10.7554/elife.80360)
# B1: HDV Ribozyme (parent)
# chain: GGCCGGCAUGGUCCCAGCCUCCUCGCUGGCGCCGGCUGGGCAACAUUCCGAGGGGACCGUCCCCUCGGUAAUGGCGAAUGGGACCCA
# Variants of: B1
# Assay: self-cleavage, relative activity (ratio to wild type); higher = more cleavage; co-transcriptional
row,Variant,self-cleavage
1,GGCCGGCAUGGUCCCAGCCUCUUCGCUGGCGCCGGCUGGGCAACAUUACGAGGGGACCGUCCCCUCGGUAAUGGCGAAUGGGACCCA [C22U C48A],0.815
2,GGCCGGCAUGGUCCCAGCCUCUUCGCUGGCGGCGGCUGGGCAACAUUCCGAGGGGACCGUCCCCUCGGUAAUGGCGAAUGGGACCCA [C22U C32G],0.0941
3,GGCCGGCAUGGUCCCAGCCUCGUCGCUGGCGCCGGCUGGGCAACAUUCCGAGGGGACCGUCCCCUCGGUAAUGUCGAAUGGGACCCA [C22G G74U],0.0841
4,GGCCGGCAUGGUCCCAGCCUCGUCGCUGGCGCCGGCUGGGCAACAUUCCGAGGGGACCGUCCCCUCGGUAAUGACGAAUGGGACCCA [C22G G74A],0.0241
5,GGCCGGCAUGGUCCCAGCCUCGUCGCUGGCGCCGGCUGGGCAACAUUCCGAGGGGACCGUCCCCUCGGUAAUGCCGAAUGGGACCCA [C22G G74C],0
6,GGCCGGCAUGGUCCCAGCCUCUUCGGUGGCGCCGGCUGGGCAACAUUCCGAGGGGACCGUCCCCUCGGUAAUGGCGAAUGGGACCCA [C22U C26G],0.492
7,GGCCGGCAUGGUCCCAGCCUCUUCGUUGGCGCCGGCUGGGCAACAUUCCGAGGGGACCGUCCCCUCGGUAAUGGCGAAUGGGACCCA [C22U C26U],0.847
8,GGCCGGCAUGGUCCCAGCCUCUUGGCUGGCGCCGGCUGGGCAACAUUCCGAGGGGACCGUCCCCUCGGUAAUGGCGAAUGGGACCCA [C22U C24G],0.0563
9,GGCCGGCAUGGUCCCAGCCUCUUCGCUGGCGCCGGCUGGGAAACAUUCCGAGGGGACCGUCCCCUCGGUAAUGGCGAAUGGGACCCA [C22U C41A],0.674
10,GGCCGGCAUGGUCCCAGCCUCUUCGCUGGCGCCGGCUGGGGAACAUUCCGAGGGGACCGUCCCCUCGGUAAUGGCGAAUGGGACCCA [C22U C41G],0.554
11,GGCCGGCAUGGUCCCAGCCUCUUCGCUGGCGCCGGCUGGGUAACAUUCCGAGGGGACCGUCCCCUCGGUAAUGGCGAAUGGGACCCA [C22U C41U],0.656
12,GGCCGGCAUGGUCCCAGCCUCGUCGCUGGCGCCGGCUGGGCAACAUUCCGAGGGGACCGUCCCCUCGUUAAUGGCGAAUGGGACCCA [C22G G68U],0.0583
13,GGCCGGCAUGGUCCCAGCCUCUUCGCUGGCGCCGGCUGGGCAACAUUCCGAGGGGACCGUCCCCUCGGUAAUGGCGAAUGGGACCCA [C22U],0.736
14,GGCCGGCAUGGUCCCAGCCUCGUCGCUGGCGCCGGCUGGGCAACAUUCCGAGGGGACCGUCCCCUCGGUAAUGGCUAAUGGGACCCA [C22G G76U],0.089
15,GGCCGGCAUGGUCCCAGCCUCGUCGCUGGCGCCGGCUGGGCAACAUUCCGAGGGGACCGUCCCCUCGGUAAUGGCCAAUGGGACCCA [C22G G76C],0.151
16,GGCCGGCAUGGUCCCAGCCUCGUCGCUGGCGCCGGCUGGGCAACAUUCCGAGGGGACCGACCCCUCGGUAAUGGCGAAUGGGACCCA [C22G U60A],0.141

row,Variant,self-cleavage
1,GGCCGGCAUGGUCCCAGCCUCGUCGCUGGCGCCGGCUGGGCAACAUUCCGAGGGGACCGGCCCCUCGGUAAUGGCGAAUGGGACCCA [C22G U60G],0
2,GGCCGGCAUGGUCCCAGCCUCUUCGCUGGCGCCGGCUGGGCAACAUUCCGAGGGGACCGUCCCCUCGGUAGUGGCGAAUGGGACCCA [C22U A71G],0.506
3,GGCCGGCAUGGUCCCAGCCUCUUCGCUGGCGCCGGCUGGGCAACAUUCCGAGGGGACCGUCCCCUCGGUAUUGGCGAAUGGGACCCA [C22U A71U],0.587
4,GGCCGGCAUGGUCCCAGCCUCUUCGCUGGCGCCGGCUGGGCAACAUUCCGAGGGGCCCGUCCCCUCGGUAAUGGCGAAUGGGACCCA [C22U A56C],0.525
5,GGCCGGCAUGGUCCCAGCCUCUUCGCUGGCGCCGGCUGGGCAACAUUCCGAGGGGUCCGUCCCCUCGGUAAUGGCGAAUGGGACCCA [C22U A56U],0.776
6,GGCCGGCAUGGUCCCAGCCUCGUCGCUGGCGCCGGCUGGGCAACAUUCCGAGGGUACCGUCCCCUCGGUAAUGGCGAAUGGGACCCA [C22G G55U],0.0382
7,GGCCGGCAUGGUCCCAGCCUCGUCGCUGGCGCCGGCUGGGCAACAUUCCGAGGGAACCGUCCCCUCGGUAAUGGCGAAUGGGACCCA [C22G G55A],0.0723
8,GGCCGGCAUGGUCCCAGCCUCUUCGCUGGCGCCGGCUGGGCAACAUUCCGAGGGGACGGUCCCCUCGGUAAUGGCGAAUGGGACCCA [C22U C58G],0.511
9,GGCCGGCAUGGUCCCAGCCUCGUCGCUGGCGCCGGCUGGGCAACAUUCCGAGGGGACCGUCCCCUCGGUAAUGGCGAAUUGGACCCA [C22G G80U],0.142
10,GGCCGGCAUGGUCCCAGCCUCUUCGCUGGCGCCGGCUGGGCAAUAUUCCGAGGGGACCGUCCCCUCGGUAAUGGCGAAUGGGACCCA [C22U C44U],0.249
11,GGCCGGCAUGGUCCCAGCCUCGCCGCUGGCGCCGGCUGGGCAACAUUCCGAGGGGACCGUCCCCUCGGUAAUGGCGAAUGGGACCCA [C22G U23C],0
12,GGCCGGCAUGGUCCCAGCCUCUUCGCUGGCGCCGGCUGGGCAACAUUCCGAGGGGACCGUCCCCUCGGUAAUGGCGAAUGGGUCCCA [C22U A83U],0.199
13,GGCCGGCAUGGUCCCAGCCUCUUCGCUGGCGCCGGCUGGGCAACAUUCCGAGGGGACCGUCCCCUCGGUAAUGGCGAAUGGGGCCCA [C22U A83G],0.12
14,GGCCGGCAUGGUCCCAGCCUCGUCGCUGGCGCCGGCUGGGCAACAUUCCGAGGGGACCGUCCCCUCGGUAAUCGCGAAUGGGACCCA [C22G G73C],0.0845
15,GGCCGGCAUGGUCCCAGCCUCGUCGCUGGCGCCGGCUGGGCAACAUUCCGAGGGGACCGUCCCCUCGGUAAUUGCGAAUGGGACCCA [C22G G73U],0
16,GGCCGGCAUGGUCCCAGCCUCGUCGCUGGCGCCGGCUGGGCAACAUUCCGAGGGGACCGUCCCCUCGGUAAUAGCGAAUGGGACCCA [C22G G73A],0.0692
